Source: patent US20060177894A1 (published 2006)

Key:
[1] = molecular target: T1, rat lutropin receptor (LHR) (rat, UniProt P16235 27-700); assay: inhibition of 125I-hCG binding to CHO cells with rat LHR; from IC50; native β-subunit analog
T1 construct: whole, on cells; also called LH receptor

[2] = molecular target: T1, rat lutropin receptor (LHR); assay: cell-based or functional assay
[3] = molecular target: T1, rat lutropin receptor (LHR); assay: inhibition of 125I-hCG binding to CHO cells with rat LHR; from IC50; acid-stable hCGβ-S138C analog

T1 sequence (P16235 27-700): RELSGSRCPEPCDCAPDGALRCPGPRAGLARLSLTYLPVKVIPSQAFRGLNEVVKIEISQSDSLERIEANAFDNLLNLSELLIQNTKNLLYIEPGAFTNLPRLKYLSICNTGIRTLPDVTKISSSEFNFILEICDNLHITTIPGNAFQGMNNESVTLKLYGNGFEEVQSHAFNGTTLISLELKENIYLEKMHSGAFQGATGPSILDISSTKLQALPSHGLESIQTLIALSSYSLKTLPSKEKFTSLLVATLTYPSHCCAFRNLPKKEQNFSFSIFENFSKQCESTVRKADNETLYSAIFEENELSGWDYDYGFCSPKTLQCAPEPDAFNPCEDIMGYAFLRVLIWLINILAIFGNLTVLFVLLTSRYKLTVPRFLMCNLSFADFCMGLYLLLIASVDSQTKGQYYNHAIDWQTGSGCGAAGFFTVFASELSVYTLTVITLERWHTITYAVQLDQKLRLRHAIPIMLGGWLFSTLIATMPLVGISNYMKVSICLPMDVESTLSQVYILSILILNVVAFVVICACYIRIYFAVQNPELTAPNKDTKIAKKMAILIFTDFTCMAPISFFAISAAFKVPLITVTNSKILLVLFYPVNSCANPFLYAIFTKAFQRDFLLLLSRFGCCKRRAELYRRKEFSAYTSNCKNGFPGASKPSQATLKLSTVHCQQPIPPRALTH

Binder | Receptor-Binding potency (percent hCG) [1] | Signal Transduction potency (cAMP accumulation) [2] | Receptor-Binding potency (percent hCG) [3] | Signal transduction potency (cAMP accumulation), acid-stable analog [2]
hCG-αK44A (ligand, mature; heterodimer from COS-7 medium; also called αK44A+hCGβ) chain 1: not shown chain 2: SKEPLRPRCRPINATLAVEKEGCPVCITVNTTICAGYCPTMTRVLQGVLPALPQVVCNYRDVRFESIRLPGCPRGVNPVVSYAVALSCQCALCRRSTTDCGGPKDHPLTCDDPRFQDSSSSKAPPPSLPSPSRLPGPSDTPILPQ | 84 % of hCG | – | – | –
αV53C + β (ligand, mature; heterodimer from COS-7 medium; also called hCG-αV53C) chain 1: not shown chain 2: SKEPLRPRCRPINATLAVEKEGCPVCITVNTTICAGYCPTMTRVLQGVLPALPQVVCNYRDVRFESIRLPGCPRGVNPVVSYAVALSCQCALCRRSTTDCGGPKDHPLTCDDPRFQDSSSSKAPPPSLPSPSRLPGPSDTPILPQ | 149 % of hCG | – | – | –
αS43C + β (ligand, mature; heterodimer from COS-7 medium; also called hCG-αS43C) chain 1: not shown chain 2: SKEPLRPRCRPINATLAVEKEGCPVCITVNTTICAGYCPTMTRVLQGVLPALPQVVCNYRDVRFESIRLPGCPRGVNPVVSYAVALSCQCALCRRSTTDCGGPKDHPLTCDDPRFQDSSSSKAPPPSLPSPSRLPGPSDTPILPQ | 35 % of hCG | 74 % of hCG | – | –
αT86C + β (ligand, mature; heterodimer from COS-7 medium; also called hCG-αT86C) chain 1: not shown chain 2: SKEPLRPRCRPINATLAVEKEGCPVCITVNTTICAGYCPTMTRVLQGVLPALPQVVCNYRDVRFESIRLPGCPRGVNPVVSYAVALSCQCALCRRSTTDCGGPKDHPLTCDDPRFQDSSSSKAPPPSLPSPSRLPGPSDTPILPQ | 95 % of hCG | 444 % of hCG | – | –
αK45C + β (ligand, mature; heterodimer from COS-7 medium; also called hCG-αK45C) chain 1: not shown chain 2: SKEPLRPRCRPINATLAVEKEGCPVCITVNTTICAGYCPTMTRVLQGVLPALPQVVCNYRDVRFESIRLPGCPRGVNPVVSYAVALSCQCALCRRSTTDCGGPKDHPLTCDDPRFQDSSSSKAPPPSLPSPSRLPGPSDTPILPQ | 93 % of hCG | 91 % of hCG | – | –
αK91C + hCGβ-S138C (ligand, mature; disulfide αCys91-βCys138) chain 1: not shown chain 2: SKEPLRPRCRPINATLAVEKEGCPVCITVNTTICAGYCPTMTRVLQGVLPALPQVVCNYRDVRFESIRLPGCPRGVNPVVSYAVALSCQCALCRRSTTDCGGPKDHPLTCDDPRFQDSSSSKAPPPSLPSPSRLPGPCDTPILPQ | – | – | 2.2 % of hCG | –
αQ50C + β (ligand, mature; heterodimer from COS-7 medium; also called hCG-αQ50C) chain 1: not shown chain 2: SKEPLRPRCRPINATLAVEKEGCPVCITVNTTICAGYCPTMTRVLQGVLPALPQVVCNYRDVRFESIRLPGCPRGVNPVVSYAVALSCQCALCRRSTTDCGGPKDHPLTCDDPRFQDSSSSKAPPPSLPSPSRLPGPSDTPILPQ | 81 % of hCG | 216 % of hCG | – | –
αQ50C + hCGβ-S138C (ligand) chain 1: not shown chain 2: SKEPLRPRCRPINATLAVEKEGCPVCITVNTTICAGYCPTMTRVLQGVLPALPQVVCNYRDVRFESIRLPGCPRGVNPVVSYAVALSCQCALCRRSTTDCGGPKDHPLTCDDPRFQDSSSSKAPPPSLPSPSRLPGPCDTPILPQ | – | – | – | 308 % of hCG
αY88C + β (ligand, mature; heterodimer from COS-7 medium; also called hCG-αY88C) chain 1: not shown chain 2: SKEPLRPRCRPINATLAVEKEGCPVCITVNTTICAGYCPTMTRVLQGVLPALPQVVCNYRDVRFESIRLPGCPRGVNPVVSYAVALSCQCALCRRSTTDCGGPKDHPLTCDDPRFQDSSSSKAPPPSLPSPSRLPGPSDTPILPQ | 141 % of hCG | 74 % of hCG | – | –
αK45C + hCGβ-S138C (ligand, mature; disulfide αCys45-βCys138) chain 1: not shown chain 2: SKEPLRPRCRPINATLAVEKEGCPVCITVNTTICAGYCPTMTRVLQGVLPALPQVVCNYRDVRFESIRLPGCPRGVNPVVSYAVALSCQCALCRRSTTDCGGPKDHPLTCDDPRFQDSSSSKAPPPSLPSPSRLPGPCDTPILPQ | – | – | 223 % of hCG | 168 % of hCG
αT46C + β (ligand, mature; heterodimer from COS-7 medium; also called hCG-αT46C) chain 1: not shown chain 2: SKEPLRPRCRPINATLAVEKEGCPVCITVNTTICAGYCPTMTRVLQGVLPALPQVVCNYRDVRFESIRLPGCPRGVNPVVSYAVALSCQCALCRRSTTDCGGPKDHPLTCDDPRFQDSSSSKAPPPSLPSPSRLPGPSDTPILPQ | 38 % of hCG | 56 % of hCG | – | –
αR42C + β (ligand, mature; heterodimer from COS-7 medium; also called hCG-αR42C) chain 1: not shown chain 2: SKEPLRPRCRPINATLAVEKEGCPVCITVNTTICAGYCPTMTRVLQGVLPALPQVVCNYRDVRFESIRLPGCPRGVNPVVSYAVALSCQCALCRRSTTDCGGPKDHPLTCDDPRFQDSSSSKAPPPSLPSPSRLPGPSDTPILPQ | 113 % of hCG | 103 % of hCG | – | –
hCG-αK44E, K45Q (ligand, Glycosylated heterodimer secreted by COS-7 cells; no engineered intersubunit disulfide., heterodimer from COS-7 medium; also called αK44E, K45Q+hCGβ) alpha: not shown beta: SKEPLRPRCRPINATLAVEKEGCPVCITVNTTICAGYCPTMTRVLQGVLPALPQVVCNYRDVRFESIRLPGCPRGVNPVVSYAVALSCQCALCRRSTTDCGGPKDHPLTCDDPRFQDSSSSKAPPPSLPSPSRLPGPSDTPILPQ | 58 % of hCG | 42 % of hCG | – | –
αH90C + hCGβ-S138C (ligand, mature; disulfide αCys90-βCys138) chain 1: not shown chain 2: SKEPLRPRCRPINATLAVEKEGCPVCITVNTTICAGYCPTMTRVLQGVLPALPQVVCNYRDVRFESIRLPGCPRGVNPVVSYAVALSCQCALCRRSTTDCGGPKDHPLTCDDPRFQDSSSSKAPPPSLPSPSRLPGPCDTPILPQ | – | – | 3.1 % of hCG | 1 % of hCG
hCG-αK91M (ligand, mature; heterodimer from COS-7 medium; also called αK91M+hCGβ) chain 1: not shown chain 2: SKEPLRPRCRPINATLAVEKEGCPVCITVNTTICAGYCPTMTRVLQGVLPALPQVVCNYRDVRFESIRLPGCPRGVNPVVSYAVALSCQCALCRRSTTDCGGPKDHPLTCDDPRFQDSSSSKAPPPSLPSPSRLPGPSDTPILPQ | 68 % of hCG | 66 % of hCG | – | –
αV49C + β (ligand, mature; heterodimer from COS-7 medium; also called hCG-αV49C) chain 1: not shown chain 2: SKEPLRPRCRPINATLAVEKEGCPVCITVNTTICAGYCPTMTRVLQGVLPALPQVVCNYRDVRFESIRLPGCPRGVNPVVSYAVALSCQCALCRRSTTDCGGPKDHPLTCDDPRFQDSSSSKAPPPSLPSPSRLPGPSDTPILPQ | 70 % of hCG | 133 % of hCG | – | –
αK91C + β (ligand, mature; heterodimer from COS-7 medium; also called hCG-αK91C) chain 1: not shown chain 2: SKEPLRPRCRPINATLAVEKEGCPVCITVNTTICAGYCPTMTRVLQGVLPALPQVVCNYRDVRFESIRLPGCPRGVNPVVSYAVALSCQCALCRRSTTDCGGPKDHPLTCDDPRFQDSSSSKAPPPSLPSPSRLPGPSDTPILPQ | 41 % of hCG | 56 % of hCG | – | –
αS64C/hCG-βS138C (ligand, mature; disulfide αCys64-βCys138; also called hCGβS138C+αS64C) chain 1: not shown chain 2: SKEPLRPRCRPINATLAVEKEGCPVCITVNTTICAGYCPTMTRVLQGVLPALPQVVCNYRDVRFESIRLPGCPRGVNPVVSYAVALSCQCALCRRSTTDCGGPKDHPLTCDDPRFQDSSSSKAPPPSLPSPSRLPGPCDTPILPQ | – | – | 89 % of hCG | –
αM47C + β (ligand, mature; heterodimer from COS-7 medium; also called hCG-αM47C) chain 1: not shown chain 2: SKEPLRPRCRPINATLAVEKEGCPVCITVNTTICAGYCPTMTRVLQGVLPALPQVVCNYRDVRFESIRLPGCPRGVNPVVSYAVALSCQCALCRRSTTDCGGPKDHPLTCDDPRFQDSSSSKAPPPSLPSPSRLPGPSDTPILPQ | 8.7 % of hCG | 23 % of hCG | – | –
αH90C + β (ligand, mature; heterodimer from COS-7 medium; also called hCG-αH90C) chain 1: not shown chain 2: SKEPLRPRCRPINATLAVEKEGCPVCITVNTTICAGYCPTMTRVLQGVLPALPQVVCNYRDVRFESIRLPGCPRGVNPVVSYAVALSCQCALCRRSTTDCGGPKDHPLTCDDPRFQDSSSSKAPPPSLPSPSRLPGPSDTPILPQ | 30 % of hCG | 65 % of hCG | – | –
hCG-αM47A (ligand, mature; heterodimer from COS-7 medium) chain 1: not shown chain 2: SKEPLRPRCRPINATLAVEKEGCPVCITVNTTICAGYCPTMTRVLQGVLPALPQVVCNYRDVRFESIRLPGCPRGVNPVVSYAVALSCQCALCRRSTTDCGGPKDHPLTCDDPRFQDSSSSKAPPPSLPSPSRLPGPSDTPILPQ | 83 % of hCG | – | – | –
αN52C + hCGβ-S138C (ligand, mature; disulfide αCys52-βCys138; lacks the αAsn52 oligosaccharide) chain 1: not shown chain 2: SKEPLRPRCRPINATLAVEKEGCPVCITVNTTICAGYCPTMTRVLQGVLPALPQVVCNYRDVRFESIRLPGCPRGVNPVVSYAVALSCQCALCRRSTTDCGGPKDHPLTCDDPRFQDSSSSKAPPPSLPSPSRLPGPCDTPILPQ | – | – | 61 % of hCG | –
αK44C + hCGβ-S138C (ligand, mature; disulfide αCys44-βCys138) chain 1: not shown chain 2: SKEPLRPRCRPINATLAVEKEGCPVCITVNTTICAGYCPTMTRVLQGVLPALPQVVCNYRDVRFESIRLPGCPRGVNPVVSYAVALSCQCALCRRSTTDCGGPKDHPLTCDDPRFQDSSSSKAPPPSLPSPSRLPGPCDTPILPQ | – | – | 250 % of hCG | 191 % of hCG
αS92C + β (ligand, mature; heterodimer from COS-7 medium; also called hCG-αS92C) chain 1: not shown chain 2: SKEPLRPRCRPINATLAVEKEGCPVCITVNTTICAGYCPTMTRVLQGVLPALPQVVCNYRDVRFESIRLPGCPRGVNPVVSYAVALSCQCALCRRSTTDCGGPKDHPLTCDDPRFQDSSSSKAPPPSLPSPSRLPGPSDTPILPQ | 100 % of hCG | 38 % of hCG | – | –
αL48C + β (ligand, mature; heterodimer from COS-7 medium; also called hCG-αL48C) chain 1: not shown chain 2: SKEPLRPRCRPINATLAVEKEGCPVCITVNTTICAGYCPTMTRVLQGVLPALPQVVCNYRDVRFESIRLPGCPRGVNPVVSYAVALSCQCALCRRSTTDCGGPKDHPLTCDDPRFQDSSSSKAPPPSLPSPSRLPGPSDTPILPQ | 60 % of hCG | 147 % of hCG | – | –
αK44C + β (ligand, mature; heterodimer from COS-7 medium; also called hCG-αK44C) chain 1: not shown chain 2: SKEPLRPRCRPINATLAVEKEGCPVCITVNTTICAGYCPTMTRVLQGVLPALPQVVCNYRDVRFESIRLPGCPRGVNPVVSYAVALSCQCALCRRSTTDCGGPKDHPLTCDDPRFQDSSSSKAPPPSLPSPSRLPGPSDTPILPQ | 66 % of hCG | 97 % of hCG | – | –
